Experimental data from patent US20120122783A1 (INDIANA UNIVERSITY RESEARCH AND TECHOLOGY, published 2012).
“And” between values parts separate entries of the source, which are not always exact repeats. Equal entries are not always repeated. Square brackets hold non-standard residues; d marks the D form. Primed or numbered codes have the meaning given here. Ends that are not written are not given here. mPEG‑MAL 20 kDa = maleimido methoxyPEG of about 20 kDa, linked to the Cys sulfur; mPEG‑MAL 5 kDa = maleimido methoxyPEG of about 5 kDa, linked to the Cys sulfur; Abu(4-SO3H) = N[C@@H](CCS(=O)(=O)O)C(=O)O; PhLac = O=C(O)[C@@H](O)Cc1ccccc1; Aad = N[C@@H](CCCC(=O)O)C(=O)O; CH2CH2COOH′ = not defined here

B1: [hGlu^9]Glucagon(aa6-29)-NH2 (peptide)
peptide: FTS[Aad]YSKYLDSRRAQDFVQWLMNT-NH2
modifications: N-terminus assumed
SMILES: CSCC[C@H](NC(=O)[C@H](CC(C)C)NC(=O)[C@H](Cc1c[nH]c2ccccc12)NC(=O)[C@H](CCC(N)=O)NC(=O)[C@@H](NC(=O)[C@H](Cc1ccccc1)NC(=O)[C@H](CC(=O)O)NC(=O)[C@H](CCC(N)=O)NC(=O)[C@H](C)NC(=O)[C@H](CCCNC(=N)N)NC(=O)[C@H](CCCNC(=N)N)NC(=O)[C@H](CO)NC(=O)[C@H](CC(=O)O)NC(=O)[C@H](CC(C)C)NC(=O)[C@H](Cc1ccc(O)cc1)NC(=O)[C@H](CCCCN)NC(=O)[C@H](CO)NC(=O)[C@H](Cc1ccc(O)cc1)NC(=O)[C@H](CCCC(=O)O)NC(=O)[C@H](CO)NC(=O)[C@@H](NC(=O)[C@@H](N)Cc1ccccc1)[C@@H](C)O)C(C)C)C(=O)N[C@@H](CC(N)=O)C(=O)N[C@H](C(N)=O)[C@@H](C)O
B2: [desHis^1, Leu^4, hCys^9(SO3-), Phe^25, Leu^27] Glucagon-NH2 (peptide)
peptide: SQLTFTS[Abu(4-SO3H)]YSKYLDSRRAQDFVQFLLNT-NH2
modifications: N-terminus assumed
SMILES: CC(C)C[C@H](NC(=O)[C@H](Cc1ccc(O)cc1)NC(=O)[C@H](CCCCN)NC(=O)[C@H](CO)NC(=O)[C@H](Cc1ccc(O)cc1)NC(=O)[C@H](CCS(=O)(=O)O)NC(=O)[C@H](CO)NC(=O)[C@@H](NC(=O)[C@H](Cc1ccccc1)NC(=O)[C@@H](NC(=O)[C@H](CC(C)C)NC(=O)[C@H](CCC(N)=O)NC(=O)[C@@H](N)CO)[C@@H](C)O)[C@@H](C)O)C(=O)N[C@@H](CC(=O)O)C(=O)N[C@@H](CO)C(=O)N[C@@H](CCCNC(=N)N)C(=O)N[C@@H](CCCNC(=N)N)C(=O)N[C@@H](C)C(=O)N[C@@H](CCC(N)=O)C(=O)N[C@@H](CC(=O)O)C(=O)N[C@@H](Cc1ccccc1)C(=O)N[C@H](C(=O)N[C@@H](CCC(N)=O)C(=O)N[C@@H](Cc1ccccc1)C(=O)N[C@@H](CC(C)C)C(=O)N[C@@H](CC(C)C)C(=O)N[C@@H](CC(N)=O)C(=O)N[C@H](C(N)=O)[C@@H](C)O)C(C)C
B3: [desHis^1, desPhe^6, hCys^9(SO3-), Phe^25, Leu^27] Glucagon-NH2 (peptide)
peptide: SQGTTS[Abu(4-SO3H)]YSKYLDSRRAQDFVQFLLNT-NH2
modifications: N-terminus assumed
SMILES: CC(C)C[C@H](NC(=O)[C@H](Cc1ccc(O)cc1)NC(=O)[C@H](CCCCN)NC(=O)[C@H](CO)NC(=O)[C@H](Cc1ccc(O)cc1)NC(=O)[C@H](CCS(=O)(=O)O)NC(=O)[C@H](CO)NC(=O)[C@@H](NC(=O)[C@@H](NC(=O)CNC(=O)[C@H](CCC(N)=O)NC(=O)[C@@H](N)CO)[C@@H](C)O)[C@@H](C)O)C(=O)N[C@@H](CC(=O)O)C(=O)N[C@@H](CO)C(=O)N[C@@H](CCCNC(=N)N)C(=O)N[C@@H](CCCNC(=N)N)C(=O)N[C@@H](C)C(=O)N[C@@H](CCC(N)=O)C(=O)N[C@@H](CC(=O)O)C(=O)N[C@@H](Cc1ccccc1)C(=O)N[C@H](C(=O)N[C@@H](CCC(N)=O)C(=O)N[C@@H](Cc1ccccc1)C(=O)N[C@@H](CC(C)C)C(=O)N[C@@H](CC(C)C)C(=O)N[C@@H](CC(N)=O)C(=O)N[C@H](C(N)=O)[C@@H](C)O)C(C)C
B4: [desHis^1, hCys^9(SO3-), Phe^25, Leu^27] Glucagon-NH2 (peptide)
peptide: SQGTFTS[Abu(4-SO3H)]YSKYLDSRRAQDFVQFLLNT-NH2
modifications: N-terminus assumed
SMILES: CC(C)C[C@H](NC(=O)[C@H](Cc1ccc(O)cc1)NC(=O)[C@H](CCCCN)NC(=O)[C@H](CO)NC(=O)[C@H](Cc1ccc(O)cc1)NC(=O)[C@H](CCS(=O)(=O)O)NC(=O)[C@H](CO)NC(=O)[C@@H](NC(=O)[C@H](Cc1ccccc1)NC(=O)[C@@H](NC(=O)CNC(=O)[C@H](CCC(N)=O)NC(=O)[C@@H](N)CO)[C@@H](C)O)[C@@H](C)O)C(=O)N[C@@H](CC(=O)O)C(=O)N[C@@H](CO)C(=O)N[C@@H](CCCNC(=N)N)C(=O)N[C@@H](CCCNC(=N)N)C(=O)N[C@@H](C)C(=O)N[C@@H](CCC(N)=O)C(=O)N[C@@H](CC(=O)O)C(=O)N[C@@H](Cc1ccccc1)C(=O)N[C@H](C(=O)N[C@@H](CCC(N)=O)C(=O)N[C@@H](Cc1ccccc1)C(=O)N[C@@H](CC(C)C)C(=O)N[C@@H](CC(C)C)C(=O)N[C@@H](CC(N)=O)C(=O)N[C@H](C(N)=O)[C@@H](C)O)C(C)C
B5: [PLA6, D9]Glucagon(aa6-29)-COOH (peptide)
peptide: [PhLac]TSDYSKYLDSRRAQDFVQWLMNT-OH
modifications: N-terminus assumed
SMILES: CSCC[C@H](NC(=O)[C@H](CC(C)C)NC(=O)[C@H](Cc1c[nH]c2ccccc12)NC(=O)[C@H](CCC(N)=O)NC(=O)[C@@H](NC(=O)[C@H](Cc1ccccc1)NC(=O)[C@H](CC(=O)O)NC(=O)[C@H](CCC(N)=O)NC(=O)[C@H](C)NC(=O)[C@H](CCCNC(=N)N)NC(=O)[C@H](CCCNC(=N)N)NC(=O)[C@H](CO)NC(=O)[C@H](CC(=O)O)NC(=O)[C@H](CC(C)C)NC(=O)[C@H](Cc1ccc(O)cc1)NC(=O)[C@H](CCCCN)NC(=O)[C@H](CO)NC(=O)[C@H](Cc1ccc(O)cc1)NC(=O)[C@H](CC(=O)O)NC(=O)[C@H](CO)NC(=O)[C@@H](NC(=O)[C@@H](O)Cc1ccccc1)[C@@H](C)O)C(C)C)C(=O)N[C@@H](CC(N)=O)C(=O)N[C@H](C(=O)O)[C@@H](C)O
B6: [PLA6, D9]Glucagon(aa6-29)-NH2 (peptide)
peptide: [PhLac]TSDYSKYLDSRRAQDFVQWLMNT-NH2
modifications: N-terminus assumed
SMILES: CSCC[C@H](NC(=O)[C@H](CC(C)C)NC(=O)[C@H](Cc1c[nH]c2ccccc12)NC(=O)[C@H](CCC(N)=O)NC(=O)[C@@H](NC(=O)[C@H](Cc1ccccc1)NC(=O)[C@H](CC(=O)O)NC(=O)[C@H](CCC(N)=O)NC(=O)[C@H](C)NC(=O)[C@H](CCCNC(=N)N)NC(=O)[C@H](CCCNC(=N)N)NC(=O)[C@H](CO)NC(=O)[C@H](CC(=O)O)NC(=O)[C@H](CC(C)C)NC(=O)[C@H](Cc1ccc(O)cc1)NC(=O)[C@H](CCCCN)NC(=O)[C@H](CO)NC(=O)[C@H](Cc1ccc(O)cc1)NC(=O)[C@H](CC(=O)O)NC(=O)[C@H](CO)NC(=O)[C@@H](NC(=O)[C@@H](O)Cc1ccccc1)[C@@H](C)O)C(C)C)C(=O)N[C@@H](CC(N)=O)C(=O)N[C@H](C(N)=O)[C@@H](C)O

Biological target: T1, human glucagon receptor (human, UniProt P47871 26-477)
Assay: cell-based or functional assay

T1 sequence (P47871 26-477): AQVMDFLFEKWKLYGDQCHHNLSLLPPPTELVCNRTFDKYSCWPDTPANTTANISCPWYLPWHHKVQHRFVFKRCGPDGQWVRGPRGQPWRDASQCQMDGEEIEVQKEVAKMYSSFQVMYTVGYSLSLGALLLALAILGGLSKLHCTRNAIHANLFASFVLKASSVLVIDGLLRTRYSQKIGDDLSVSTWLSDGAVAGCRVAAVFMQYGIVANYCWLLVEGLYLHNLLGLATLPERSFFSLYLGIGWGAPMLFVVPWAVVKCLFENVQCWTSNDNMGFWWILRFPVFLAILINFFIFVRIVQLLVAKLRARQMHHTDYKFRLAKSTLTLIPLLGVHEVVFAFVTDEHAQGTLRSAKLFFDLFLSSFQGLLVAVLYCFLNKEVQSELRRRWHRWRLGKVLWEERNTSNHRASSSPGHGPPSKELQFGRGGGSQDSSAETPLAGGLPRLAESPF

IC50 (nM) (cAMP, inhibit 0.2 mM Glucagon) | Molecule
1340 nM | C(3.4 kDa PEG)FTSEYSKYLDSRRAQDFVQWLMNT-NH2 (also: dimer: the two Cys5 joined by 3.4 kDa PEG) [3.4kDaPEG-dimer[C5, E9]Glucagon(aa5-29) -NH2]
216 nM | [PhLac]TC(mPEG‑MAL 5 kDa)EYSKYLDSRRAQDFVQWLMNT-NH2 [[PLA6, C8(5kDaPEG), E9]Glucagon(aa6-29) -NH2]
976 nM | C(20 kDa PEG)FTSEYSKYLDSRRAQDFVQWLMNT-NH2 [[C5(20kDaPEG), E9]Glucagon(aa5-29) -NH2]
236 nM and 92 nM | [PhLac]TC(mPEG‑MAL 20 kDa)EYSKYLDSRRAQDFVQWLMNT-NH2 [[PLA6, C8(20kDaPEG), E9]Glucagon(aa6-29)-NH2]
126 nM | [PhLac]TSEYSKYLDSRRAQDFVC(mPEG‑MAL 20 kDa)WLMNT-NH2 [[PLA6, E9, C24(20kDaPEG)]Glucagon(aa6-29)-NH2]
664 nM | [PhLac]TSEYC(mPEG‑MAL 20 kDa)KYLDSRRAQDFVQWLMNT-NH2 [[PLA6, E9, C11(20kDaPEG)]Glucagon(aa6-29)-NH2]
18 nM | [PhLac]TSEYSKYLDSRRAQDFVC(m‑dPEG24‑MAL)WLMNT-NH2 [[PLA6, E9 ,C24(1.2 kDaPEG)]Glucagon(aa6-29) -NH2]
1610 nM | C(5 kDa PEG)FTSEYSKYLDSRRAQDFVQWLMNT-NH2 [[C5(5kDaPEG), E9]Glucagon(aa5-29) -NH2]
2280 nM | C(1.2 kDa PEG)FTSEYSKYLDSRRAQDFVQWLMNT-NH2 [[C5(1.2kDaPEG), E9]Glucagon(aa5-29) -NH2]

Biological target: T1, human glucagon receptor
Assay: cell-based or functional assay
Remark: another data set of the same source

cAMP Induction EC50 [nM] | IC50 (nM) (cAMP, inhibit 0.2 mM Glucagon) | Molecule
2.54 | – | Oxyntomodulin C24 (from UniProt P01275 53-89) (peptide)
– | 14800 | [d-Cys5(20kDaPEG), E9]Glucagon(aa5-29) -NH2 (peptide)
0.97 | – | Oxyntomodulin C24 PEG 20 K (from UniProt P01275 53-89) (peptide)
3.25 | – | Oxyntomodulin (from UniProt P01275 53-89) (peptide)

Biological target: T1, human glucagon receptor
Assay: cell-based or functional assay
Remark: another data set of the same source

cAMP (I/A)50, inhibition index [ratio] | Molecule
2360 | B1
1730 | FTSDYSKYLDSRRAQDFVQWLMNT-NH2 [Glucagon(aa6-29)-NH2]
580 | FTSC(CH2CH2COOH′)YSKYLDSRRAQDFVQWLMNT-NH2 [[(CSA-2)^9]Glucagon(aa6-29)-NH2]
1990 | FTSKYSKYLDSRRAQDFVQWLMNT-NH2 [[Lys^9]Glucagon(aa6-29)-NH2]
506 | FTSC(CH2COOH)YSKYLDSRRAQDFVQWLMNT-NH2 [[(CSA-1)^9]Glucagon(aa6-29)-NH2]

Biological target: T1, human glucagon receptor
Assay: cell-based or functional assay
Remark: another data set of the same source

cAMP Induction EC50 [nM] | cAMP Inhibition IC50 [nM] | Molecule
1610 | 4460 | B2
3210 | 9220 | B3
81 | – | SQGTFTSEYSKYLDSRRAQDFVQFLLNT-NH2 [[desHis^1, Glu^9, Phe^25, Leu^27]Glucagon-NH2]
318 | 102 | SQLTFTSEYSKYLDSRRAQDFVQWLMNT-NH2 [[desHis^1, Leu^4, Glu^9] Glucagon-NH2]
430 | – | B4

Biological target: T1, human glucagon receptor
Assay: cell-based or functional assay
Remark: another data set of the same source

cAMP IC50 [nM] | Molecule
472 | B1
346 | FTSDYSKYLDSRRAQDFVQWLMNT-NH2 [Glucagon(aa6-29)-NH2]
116 | FTSC(CH2CH2COOH′)YSKYLDSRRAQDFVQWLMNT-NH2 [[(CSA-2)^9]Glucagon(aa6-29)-NH2]
398 | FTSKYSKYLDSRRAQDFVQWLMNT-NH2 [[Lys^9]Glucagon(aa6-29)-NH2]
101 | FTSC(CH2COOH)YSKYLDSRRAQDFVQWLMNT-NH2 [[(CSA-1)^9]Glucagon(aa6-29)-NH2]

Biological target: T1, human glucagon receptor
Assay: cell-based or functional assay
Remark: another data set of the same source

IC50 (nM) (cAMP, inhibit Glucagon) 0.1 nM or 0.2 nM | Molecule
13.2 | B5
6.9 | B6
